Assay results from patent US20120076762A1, “INDUCED PLURIPOTENT STEM CELL GENERATION USING TWO FACTORS AND P53 INACTIVATION” (THE SALK INSTITUTE FOR BIOLOGICAL STUDIES, priority 2009, published 2012).

What was measured:
[1] = test system: Mouse embryonic fibroblasts (MEFs); test: Reprogramming of mouse embryonic fibroblasts to iPS cells (Nanog-positive colonies); type: cell-based; conditions: MEFs; for Reprogramming efficiency (Nanog-positive colonies / infected cells): 3F (Oct4/Sox2/Klf4), d12-14, error = s.d.; for Direction and grade of change in reprogramming efficiency (arrows): 3F, vs control
Source text: VSV-G viruses were produced in HEK293T cells. For pMX-based and pMSCV-based retroviruses, vectors were transfected using CaPO4 or lipofectamin, following the manufacturers' directions. One day after transfection, culture medium was changed to new medium. For lentivirus, pBOBI-based^34 or pLVTHM-based^37 vectors were transfected by Lipofectamine™ 2000 (Invitrogen) according to the manufacturer's protocol. Six hours after transfection, the DNA-lipofectamine-complex was removed and the medium was replaced the next day. Two days after transfection, the supernatant containing viruses was collected and filtered through a 0.45 μm filter. Mouse iPS cells were induced as previously described^38,39. Briefly, mouse embryonic fibroblasts (passage 3 to 5) were infected (day 0) with pMX-based retroviruses together with pLVTHM-based lentivirus for shRNAs or pBOBI-based lentivirus for Bcl-2. On day 2, cells were passed onto new gelatin-coated plates. Medium was changed every 2 days. On day 12 to 14, cells were fixed for immunofluorescence study. For the Nutlin3a experiments, cells were treated starting from day 4. Reprogramming of human embryonic fibroblasts (IMR90) was done as previously described^2′^3. Briefly, IMR90 fibroblasts (passage 7 to 9) were infected (day 0) with pMSCV-based retroviruses+pLVTHM-based lentiviruses for p53 shRNA. On day 4 or 5, cells were passed onto feeder MEFs. Medium was changed every day. Around 3 weeks after infection, cells were fixed for immunofluorescence studies. Reprogramming of human primary keratinocytes was carried out essentially as described^6. Cells were co-infected with retroviral supernatants containing 3 or 4 reprogramming factors and p53-DD or GFP at a 1:2 ratio. To assess the reprogramming efficiency, cells were trypsinized 3 days after retroviral infection and 10^4 cells were plated onto 6-cm tissue culture dishes on top of irradiated human foreskin fibroblasts with hES cell medium.
The number of Nanog-positive colonies was calculated after immunostaining at d12-14. The total number of Nanog-positive colonies was divided by the number of infected cells. Error numbers indicate s.d. The term “s.d.” refers in the customary sense to standard deviation. The term “s.e.” refers in the customary sense to standard error. Student's t-tests were performed for statistical analysis. p=0.007 (p53-shRNA vs mock, n=4 in each), p=0.0006 (p53−/− vs WT, n=3 in each), p=0.009 (p21-shRNA vs mock, n=4 in each), p=0.0005 (Arf-shRNA vs mock, n=3 in each), p=0.028 (Arf/Ink4a-shRNA vs mock, n=3 in each), p=0.010 (Ctl(solvent) vs Nutlin-3(10 μM), n=3 in each), p=0.045 (3SA/3SA vs WT, n=3 in each), p=0.022 (Bcl-2 vs mock, n=4 in each), and p=0.012 (c-Myc versus mock, n=4 in each).

MEFs = test: TUNEL staining of apoptotic cells in factor-infected MEFs; type: cell-based, mouse; conditions: 2-F, 3-F and 4-F experiments, five days after infection
Protocol: FIG. 13: Bcl-2 increased the efficiency of reprogramming. (FIG. 13a) MEFs were infected by retroviruses encoding 4 transcription factors (Oct4/Sox2/Klf4/c-Myc), 3 factors (Oct4/Sox2/Klf4), or 2 factors (Oct4/Sox2) with lentivirus encoding Bcl-2. Five days after infection, TUNEL-staining was performed. The percentage of apoptotic cells was analyzed (using at least five independent panels) and represented graphically. Error bars indicate s.d. (FIG. 13b) MEFs were infected by retroviruses encoding 3 factors (Oct4/Sox2/Klf4) in combination with mock or Bcl-2 expressing lentivirus. The fold change in the number of Nanog-positive colonies compared to mock (n=3) is shown. Error bars indicate s.d (n=3).

B1: c-Myc: c-Myc retrovirus (pMXs) added to Oct4/Sox2/Klf4 as fourth factor (protein, UniProt P01108 1-454, looked up)
Myc proto-oncogene protein: MDFLWALETPQTATTMPLNVNFTNRNYDLDYDSVQPYFICDEEENFYHQQQQSELQPPAPSEDIWKKFELLPTPPLSPSRRSGLCSPSYVAVATSFSPREDDDGGGGNFSTADQLEMMTELLGGDMVNQSFICDPDDETFIKNIIIQDCMWSGFSAAAKLVSEKLASYQAARKDSTSLSPARGHSVCSTSSLYLQDLTAAASECIDPSVVFPYPLNDSSSPKSCTSSDSTAFSPSSDSLLSSESSPRASPEPLVLHEETPPTTSSDSEEEQEDEEEIDVVSVEKRQTPAKRSESGSSPSRGHSKPPHSPLVLKRCHVSTHQHNYAAPPSTRKDYPAAKRAKLDSGRVLKQISNNRKCSSPRSSDTEENDKRRTHNVLERQRRNELKRSFFALRDQIPELENNEKAPKVVILKKATAYILSIQADEHKLTSEKDLLRKRREQLKHKLEQLRNSGA
Reprogramming efficiency (Nanog-positive colonies / infected cells) [1]: 0.517 ± 0.264% vs 0.114 + 0.054%
Direction and grade of change in reprogramming efficiency (arrows) [1]: ↑↑

B2: Bcl-2: mouse Bcl-2 cDNA overexpressed from HIV pBOBI lentiviral vector; BAX antagonist (protein, UniProt P10417 1-236, looked up)
Apoptosis regulator Bcl-2: MAQAGRTGYDNREIVMKYIHYKLSQRGYEWDAGDADAAPLGAAPTPGIFSFQPESNPMPAVHRDMAARTSPLRPLVATAGPALSPVPPVVHLTLRRAGDDFSRRYRRDFAEMSSQLHLTPFTARGRFATVVEELFRDGVNWGRIVAFFEFGGVMCVESVNREMSPLVDNIALWMTEYLNRHLHTWIQDNGGWDAFVELYGPSMRPLFDFSWLSLKTLLSLALVGACITLGAYLGHK
Fold increase in reprogramming / Nanog-positive colony formation vs control ([1]; 3-F): 4 fold
Reprogramming efficiency (Nanog-positive colonies / infected cells) [1]: 0.268 ± 0.117% vs 0.100 + 0.062%
Direction and grade of change in reprogramming efficiency (arrows) [1]: ↑↑
Effect on apoptosis (TUNEL) (MEFs): suppressed apoptosis
